In patent US20150203840A1 (ARGEN X N V, published 2015):

How the values were obtained:
[1] = biological target: T1, rhesus IL22R ECD (rhesus) (UniProt G7MHN4); assay: ELISA, mAb coated at 100 ng/ml, biotinylated rhesus IL22R ECD at 100 ng/ml, streptavidin-HRP
T1 sequence (chain, biotinylated): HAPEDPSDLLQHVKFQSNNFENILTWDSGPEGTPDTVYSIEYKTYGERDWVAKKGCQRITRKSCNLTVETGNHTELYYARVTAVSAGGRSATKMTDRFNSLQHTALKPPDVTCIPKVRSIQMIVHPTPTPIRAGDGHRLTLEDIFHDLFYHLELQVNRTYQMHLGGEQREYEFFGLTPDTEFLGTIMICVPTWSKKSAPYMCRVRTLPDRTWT

[2] = biological target: T2, recombinant mouse IL22R1 (mouse IL22R ECD) (mouse) (UniProt Q80XZ4); assay: ELISA, mAb coated at 100 ng/ml, biotinylated mouse IL22R ECD at 2 ng/ml, streptavidin-HRP
T2 sequence (biotinylated in the ELISA of Table 4, looked up): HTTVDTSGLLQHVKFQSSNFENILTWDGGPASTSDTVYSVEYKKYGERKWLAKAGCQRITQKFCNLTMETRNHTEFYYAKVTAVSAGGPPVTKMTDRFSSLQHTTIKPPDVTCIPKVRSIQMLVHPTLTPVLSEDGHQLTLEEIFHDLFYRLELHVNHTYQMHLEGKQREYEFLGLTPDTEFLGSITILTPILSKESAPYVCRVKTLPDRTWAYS

[3] = biological target: T3, recombinant human IL22R1 (human IL22R ECD) (human) (UniProt Q8N6P7); assay: ELISA, mAb coated at 100 ng/ml, biotinylated human IL22R ECD at 2 ng/ml, streptavidin-HRP
T3 sequence (biotinylated in the ELISA of Table 4, looked up): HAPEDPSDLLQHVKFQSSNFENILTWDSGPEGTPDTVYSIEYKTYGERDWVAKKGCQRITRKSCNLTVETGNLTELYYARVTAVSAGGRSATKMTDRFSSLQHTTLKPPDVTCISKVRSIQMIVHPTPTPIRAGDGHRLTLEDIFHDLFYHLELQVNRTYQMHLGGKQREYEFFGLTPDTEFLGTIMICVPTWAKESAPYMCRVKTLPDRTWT

[4] = biological target: T3, recombinant human IL22R1 (human IL22R ECD) (human); assay: Biacore, immobilized human IL22R ECD
[5] = biological target: T3, recombinant human IL22R1 (human IL22R ECD) (human); assay: ELISA, mAb coated at 100 ng/ml, biotinylated human IL22R ECD at 100 ng/ml, streptavidin-HRP
cyno IL22R ECD (cyno) [6] = assay: ELISA, mAb coated at 100 ng/ml, biotinylated cyno IL22R ECD at 100 ng/ml, streptavidin-HRP
[7] = biological target: T2, recombinant mouse IL22R1 (mouse IL22R ECD) (mouse); assay: ELISA, mAb coated at 100 ng/ml, biotinylated mouse IL22R ECD at 100 ng/ml, streptavidin-HRP
[8] = biological target: T2, recombinant mouse IL22R1 (mouse IL22R ECD) (mouse); assay: Biacore, immobilized mouse IL22R ECD
[9] = biological target: T1, rhesus IL22R ECD (rhesus); assay: ELISA, mAb coated at 100 ng/ml, biotinylated rhesus IL22R ECD at 2 ng/ml, streptavidin-HRP
cyno IL22R ECD (cyno) [10] = assay: ELISA, mAb coated at 100 ng/ml, biotinylated cyno IL22R ECD at 2 ng/ml, streptavidin-HRP

Binder | Absorption at 620 nm (relative absorption units) [1] | Absorption at 620 nm (relative absorption units) [2] | Absorption at 620 nm (relative absorption units) [3] | Kd [4] | koff [4] | kon [4] | Absorption at 620 nm (relative absorption units) [5] | Absorption at 620 nm (relative absorption units) (cyno IL22R ECD (cyno) [6]) | Absorption at 620 nm (relative absorption units) [7] | Kd [8] | koff [8] | kon [8] | Absorption at 620 nm (relative absorption units) [9] | Absorption at 620 nm (relative absorption units) (cyno IL22R ECD (cyno) [10])
205A9 (antibody, part only; not given: parental heavy chain variable domain, V domains shown, part only) VL: HSAVTQPSAVSVSLGQTARITCQGGNFGSYYASWYQQKPGQAPVLVIYDDDRRPSGIPERFSGSSSGGRSTLTISGAQSGDEGDYYCQSADLSGNPVFGGGTHLTVL | 2.59 | 1.86 | 1.03 | 420 pM | 0.00028 s⁻¹ | 670000 M⁻¹ s⁻¹ | 2.57 | 2.18 | 2.36 | 1800 pM | 0.00048 s⁻¹ | 260000 M⁻¹ s⁻¹ | 1.97 | –
205A5 (antibody, part only; not given: parental light chain variable domain, V domains shown, part only) VH: QVQLVESGGGLVQPGGSLRLSCAASGFTFNSYEMYWVRQAPGKGLEWVSGITADGGYTYYADSVKGRFTMSRDNAKNTLYLQMNSLKPEDTALYYCANLWNDYWGQGTQVIVSS | 2.77 | 0.172 | 1 | 1.9 pM | 3.1e-07 s⁻¹ | 160000 M⁻¹ s⁻¹ | 2.93 | 2.66 | 2.36 | 7 pM | 1e-06 s⁻¹ | 150000 M⁻¹ s⁻¹ | 1.17 | 1.36
